Results: patent publication US5362852A, “Modified peptide derivatives conjugated at 2-hydroxyethylamine moieties” (Pfizer Inc., priority 1991, dated 1994)

B1: N-terminally biotinylated ovine CRF [Met^21 O] (peptide)
peptide: SQEPPISLDLTFHLLREVLEXTKADQLAQQAHSNRKLLDIA
modifications: N-terminal Ser oxidised by periodate to glyoxylyl (=CH-CO-) and coupled as hydrazone to 6-((biotinoyl)amino)caproic acid hydrazide (biotin-X-hydrazide); Met 21 as the sulfoxide (Met^21 O)
B2: Lucifer Yellow conjugate of ovine CRF [Met^21 O] (peptide)
peptide: B1 peptide
modifications: N-terminal Ser oxidised by periodate to glyoxylyl (=CH-CO-) and coupled as hydrazone to Lucifer Yellow; Met 21 as the sulfoxide (Met^21 O)

Columns and labels:
[1] = target: human CRF receptor (human); test: receptor binding assay on human CRF receptor prepared from cultured SK-N-SH cells
human CRF receptor = target: T1, human CRF receptor (Homo sapiens, UniProt P34998); test: ability to bind to the human CRF receptor (prepared from cultured SK-N-SH cells); assay type: binding; details: products dissolved in 0.05M sodium phosphate, pH 7.0
T1 construct: human CRF receptor (prepared from cultured SK-N-SH cells); endogenous in cells; host or cells: SK-N-SH cells (human neuroblastoma), receptor preparation
T1 sequence (P34998 24-415): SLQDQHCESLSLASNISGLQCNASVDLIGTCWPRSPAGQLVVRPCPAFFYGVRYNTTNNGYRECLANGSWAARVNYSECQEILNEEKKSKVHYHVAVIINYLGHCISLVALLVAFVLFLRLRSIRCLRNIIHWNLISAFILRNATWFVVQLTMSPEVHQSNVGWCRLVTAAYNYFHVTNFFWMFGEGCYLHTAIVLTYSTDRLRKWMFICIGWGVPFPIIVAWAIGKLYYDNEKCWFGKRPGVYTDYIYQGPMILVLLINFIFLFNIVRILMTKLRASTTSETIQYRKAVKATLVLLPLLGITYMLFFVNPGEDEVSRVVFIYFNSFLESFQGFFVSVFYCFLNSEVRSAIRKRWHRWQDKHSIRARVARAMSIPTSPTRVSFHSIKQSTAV
Description: The products were dissolved in 0.05M sodium phosphate, pH 7.0, and tested for their ability to bind to the human CRF receptor (prepared from cultured SK-N-SH cells).

Row | Molecule | IC50 [1] [nM] | IC50 (human CRF receptor) [nM]
1 | underivatized CRF [Met^21 O] | 5 | –
2 | CC[C@H](C)[C@H](NC(=O)[C@H](CC(=O)O)NC(=O)[C@H](CC(C)C)NC(=O)[C@H](CC(C)C)NC(=O)[C@H](CCCCN)NC(=O)[C@H](CCCNC(=N)N)NC(=O)[C@H](CC(N)=O)NC(=O)[C@H](CO)NC(=O)[C@H](Cc1c[nH]cn1)NC(=O)[C@H](C)NC(=O)[C@H](CCC(N)=O)NC(=O)[C@H](CCC(N)=O)NC(=O)[C@H](C)NC(=O)[C@H](CC(C)C)NC(=O)[C@H](CCC(N)=O)NC(=O)[C@H](CC(=O)O)NC(=O)[C@H](C)NC(=O)[C@H](CCCCN)NC(=O)[C@@H](NC(=O)[C@H](CC[S+](C)[O-])NC(=O)[C@H](CCC(=O)O)NC(=O)[C@H](CC(C)C)NC(=O)[C@@H](NC(=O)[C@H](CCC(=O)O)NC(=O)[C@H](CCCNC(=N)N)NC(=O)[C@H](CC(C)C)NC(=O)[C@H](CC(C)C)NC(=O)[C@H](Cc1c[nH]cn1)NC(=O)[C@H](Cc1ccccc1)NC(=O)[C@@H](NC(=O)[C@H](CC(C)C)NC(=O)[C@H](CC(=O)O)NC(=O)[C@H](CC(C)C)NC(=O)[C@H](CO)NC(=O)[C@@H](NC(=O)[C@@H]1CCCN1C(=O)[C@@H]1CCCN1C(=O)[C@H](CCC(=O)O)NC(=O)[C@H](CCC(N)=O)NC(=O)[C@@H](N)CO)[C@@H](C)CC)[C@@H](C)O)C(C)C)[C@@H](C)O)C(=O)N[C@@H](C)C(N)=O (stereo partly shown) [CRF [Met^21 O]] | – | 5
3 | B1 | 5 | –
4 | B2 | 5 | –
